According to patent US12533321B2, “Polypeptide formulations for oral delivery” (Bhami's Research Laboratory, Pvt. Ltd., priority 2022, dated 2026):
Like-named read-outs stand apart in the source and are kept apart here. Each block holds one molecule with its values, some of them ahead of it.

Columns and labels:
[1] = Pharmacokinetics of Semaglutide in albumin crystal sugar truffle shell vs SC, plasma Semaglutide by ELISA; type: in vivo, Wistar Rats; settings: 0.1 mg
Method: The semaglutide was processed to prepare albumin microparticles containing semaglutide according to the procedure mentioned under Example 5. The microparticle of albumin crystals containing semaglutide was then lyophilized after washing with cold isopropanol.
Pharmacokinetic analysis was conducted in male Wistar Rats weighing 150 to 250 grams for 1 day. Rats in the oral treatment group was fasted overnight. […] The time of dosage of each animal was noted. […] An antibody, anti-Semaglutide was pre-coated onto a 96-well plate. […] The intensity of the yellow color is proportional to the Semaglutide amount bound on the plate.

[2] = minipig, in vivo, iv
Method: Pharmacokinetic analysis was conducted in Female Minipigs weighing 12±1 kg for 2 days. Pigs in the treatment group was fasted overnight prior to the test sample administration. All the test animals in the treatment groups were administered with respective test formulation to the pre-designated animals. The time of dosage of each animal was noted. Blood samples were collected at aforementioned time points 0 min, 5 min, 30 min 1 hr, 4 hrs, 12 hrs, 24 hrs, and 48 hrs into an EDTA-blood collection tubes for the separation of plasma to determine insulin levels by ELISA. Plasma samples collected at different time points were analyzed by ELISA kit according to ABBEXA protocol. This kit is based on sandwich enzyme-linked immuno-sorbent assay technology. An antibody, anti-insulin was pre-coated onto a 96-well plate. Standards, test samples, and biotin-conjugated reagent were added to the wells and incubated. The HRP-conjugated reagent was then added, and the whole plate was incubated. Unbound conjugates were removed using wash buffer at each stage. TMB substrate was used to quantify the HRP enzymatic reaction. After TMB substrate was added, only wells that contain sufficient INS will produce a blue colored product, which then changes to yellow after adding the acidic stop solution. The intensity of the yellow colour is proportional to the INS amount bound on the plate. The Optical Density (OD) was measured spectrophotometrically at 450 nm in a microplate reader, from which the concentration of INS can be calculated.
(§1) Insulin was analyzed in plasma using a specific enzyme linked immunosorbent assay (ELISA). Pharmacokinetic endpoints were determined using noncompartmental methods using PK Solutions software. AUC was approximated using the trapezoidal rule on the observed concentrations. C max for each Insulin dose was derived as the maximum of all valid concentrations, and t max was then determined as the corresponding time point to C max. The terminal elimination rate constant (λ z) was estimated by log-linear regression on the terminal part of the concentration-time curve, and t ½ was then calculated as t ½=ln 2/λz.

[3] = minipig, in vivo, iv; remark: listed apart in the source
Method: Pharmacokinetic analysis was conducted in Female Minipigs weighing 12±1 kg for 2 days. Pigs in the treatment group was fasted overnight prior to the test sample administration. All the test animals in the treatment groups were administered with respective test formulation to the pre-designated animals. The time of dosage of each animal was noted. Blood samples were collected at aforementioned time points 0 min, 5 min, 30 min, 1 hr, 4 hrs, 12 hrs, 24 hrs, and 48 hrs into an EDTA-blood collection tubes for the separation of plasma to determine insulin levels by ELISA. Plasma samples collected at different time points were analyzed by ELISA kit according to ABBEXA protocol. This kit is based on sandwich enzyme-linked immuno-sorbent assay technology. An antibody, anti-insulin was pre-coated onto a 96-well plate. Standards, test samples, and biotin-conjugated reagent were added to the wells and incubated. The HRP-conjugated reagent was then added, and the whole plate was incubated. Unbound conjugates were removed using wash buffer at each stage. TMB substrate was used to quantify the HRP enzymatic reaction. After TMB substrate was added, only wells that contain sufficient INS will produce a blue colored product, which then changes to yellow after adding the acidic stop solution. The intensity of the yellow colour is proportional to the INS amount bound on the plate. The Optical Density (OD) was measured spectrophotometrically at 450 nm in a microplate reader, from which the concentration of INS can be calculated.
as §1

Mean Semaglutide levels ([1]; 0 h, SC): 0.00 ± 0.00 ng/mL
AUMC 0-inf_obs ([1]; SC): 29775275.74 ng/ml * h^2
AUMC 0-inf_pred ([1]; SC): 29434343.61 ng/ml * h^2
AUMC 0-t ([1]; SC): 2165980.669 ng/ml * h^2
AUMC 0-t/0-inf_obs ([1]; SC): 0.07274
AUMC 0-t/0-inf_pred ([1]; SC): 0.07359
AUMC t-inf_obs ([1]; SC): 27609295.07 ng/ml * h^2
AUMC t-inf_pred ([1]; SC): 27268362.94 ng/ml * h^2
Clast_obs ([1]; SC): 6808.65 ng/mL
Clast_pred ([1]; SC): 6725 ng/mL
Lambda_z ([1]; SC): 0.01894 h⁻¹
Tlag ([1]; SC): 0 h
Tlast ([1]; SC): 24 h
level at 0.25 h ([1]; male, Wistar, rat, plasma, 0.25 h, SC, read-out: Mean Semaglutide levels): 11900 ± 2420 ng/mL
level at 0.5 h ([1]; male, Wistar, rat, plasma, 0.5 h, SC, read-out: Mean Semaglutide levels): 11200 ± 1470 ng/mL
level at 1 h ([1]; male, Wistar, rat, plasma, 1 h, SC, read-out: Mean Semaglutide levels): 13100 ± 1670 ng/mL
level at 2 h ([1]; male, Wistar, rat, plasma, 2 h, SC, read-out: Mean Semaglutide levels): 12600 ± 2930 ng/mL
level at 4 h ([1]; male, Wistar, rat, plasma, 4 h, SC, read-out: Mean Semaglutide levels): 10300 ± 2790 ng/mL
level at 8 h ([1]; male, Wistar, rat, plasma, 8 h, SC, read-out: Mean Semaglutide levels): 8560 ± 1420 ng/mL
level at 24 h ([1]; male, Wistar, rat, plasma, 24 h, SC, read-out: Mean Semaglutide levels): 6810 ± 1730 ng/mL
MRT inf ([1]; rat, in vivo, sc, SC, read-out: MRT 0-inf_obs): 52.6 h
MRT inf ([1]; rat, in vivo, sc, SC, read-out: MRT 0-inf_pred): 52.4 h
MRT last ([1]; rat, in vivo, sc, read-out: MRT 0-t): 10.5 h
Molecule: CC[C@H](C)[C@H](NC(=O)[C@H](Cc1ccccc1)NC(=O)[C@H](CCC(=O)O)NC(=O)[C@H](CCCCNC(=O)COCCOCCNC(=O)COCCOCCNC(=O)CC[C@H](NC(=O)CCCCCCCCCCCCCCCCC(=O)O)C(=O)O)NC(=O)[C@H](C)NC(=O)[C@H](C)NC(=O)[C@H](CCC(N)=O)NC(=O)CNC(=O)[C@H](CCC(=O)O)NC(=O)[C@H](CC(C)C)NC(=O)[C@H](Cc1ccc(O)cc1)NC(=O)[C@H](CO)NC(=O)[C@H](CO)NC(=O)[C@@H](NC(=O)[C@H](CC(=O)O)NC(=O)[C@H](CO)NC(=O)[C@@H](NC(=O)[C@H](Cc1ccccc1)NC(=O)[C@@H](NC(=O)CNC(=O)[C@H](CCC(=O)O)NC(=O)C(C)(C)NC(=O)[C@@H](N)Cc1cnc[nH]1)[C@@H](C)O)[C@@H](C)O)C(C)C)C(=O)N[C@@H](C)C(=O)N[C@@H](Cc1c[nH]c2ccccc12)C(=O)N[C@@H](CC(C)C)C(=O)N[C@H](C(=O)N[C@@H](CCCNC(=N)N)C(=O)NCC(=O)N[C@@H](CCCNC(=N)N)C(=O)NCC(=O)O)C(C)C [Semaglutide]

Molecule: Human Insulin R: Humulin R (insulin human recombinant) U-100, marketed liquid formulation, given IV
Cl_obs [2]: 0.000 (mg)/(mU/L)/h
Cl_pred [2]: 0.000 (mg)/(mU/L)/h
AUC 0-inf_obs ([2]; 0.347 mg): 803.478 mU/L * h
AUC 0-inf_pred ([2]; 0.347 mg): 800.145 mU/L * h
AUC t-inf_obs ([2]; 0.347 mg): 20.830 mU/L * h
AUC t-inf_pred ([2]; 0.347 mg): 17.497 mU/L * h
AUC(0-t) ([2]; 0.347 mg): 782.648 mU/L * h
C0 ([2]; 0.347 mg): 105.903 mU/L
Cmax ([2]; 0.347 mg): 998.596 mU/L
MRT 0-inf_obs ([2]; 0.347 mg): 1.532 h
MRT 0-inf_pred ([2]; 0.347 mg): 1.471 h
MRT 0-t ([2]; 0.347 mg): 1.143 h
Tmax ([2]; 0.347 mg): 4.8 min
Vss_obs ([2]; 0.347 mg): 0.001 (mg)/(mU/L)
Vss_pred ([2]; 0.347 mg): 0.001 (mg)/(mU/L)
Vz_obs ([2]; 0.347 mg): 0.002 (mg)/(mU/L)
Vz_pred ([2]; 0.347 mg): 0.002 (mg)/(mU/L)
t½ ([2]; 0.347 mg): 2.873 h
Cl_obs [3]: 0.000 (mg)/(mU/L)/h
Cl_pred [3]: 0.000 (mg)/(mU/L)/h
AUC 0-inf_obs ([3]; 0.347 mg): 803.478 mU/L * h
AUC 0-inf_pred ([3]; 0.347 mg): 800.145 mU/L * h
AUC t-inf_obs ([3]; 0.347 mg): 20.830 mU/L * h
AUC t-inf_pred ([3]; 0.347 mg): 17.497 mU/L * h
AUC(0-t) ([3]; 0.347 mg): 782.648 mU/L * h
C0 ([3]; 0.347 mg): 105.903 mU/L
Cmax ([3]; 0.347 mg): 998.596 mU/L
MRT 0-inf_obs ([3]; 0.347 mg): 1.532 h
MRT 0-inf_pred ([3]; 0.347 mg): 1.471 h
MRT 0-t ([3]; 0.347 mg): 1.143 h
Tmax ([3]; 0.347 mg): 4.8 min
Vss_obs ([3]; 0.347 mg): 0.001 (mg)/(mU/L)
Vss_pred ([3]; 0.347 mg): 0.001 (mg)/(mU/L)
Vz_obs ([3]; 0.347 mg): 0.002 (mg)/(mU/L)
Vz_pred ([3]; 0.347 mg): 0.002 (mg)/(mU/L)
t½ ([3]; 0.347 mg): 2.873 h
